What all share (assay type): biochemical
A short description of data set [1]: HTP-analysis of yeast culture supernatants, no challenge (MUGal hydrolysis). Particulars: activity of the variant/activity of Rd4BB (SEQ ID NO: 15). An outline of the steps: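 GLA variants expressed in yeast INVSc1, secreted into SD-Ura broth over 66-84 h at 30° C; clarified supernatants tested without challenge. Supernatant mixed with McIlvaine buffer pH 4.8 and 2 mM MUGal (citrate/KCl, pH 4.6), 37° C for 30-180 min, carbonate-quenched, fluorescence Ex 355/Em 448 nm.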

Data set [2] can be described thus: HTP-analysis of supernatants pretreated with base (MUGal hydrolysis). Particulars: activity of the variant/activity of Rd4BB (SEQ ID NO: 15); challenge at pH 9.65. An outline of the steps: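 GLA variants were secreted by transformed INVSc1 yeast grown 66-84 h at 30° C. Supernatants were exposed to neutral-to-basic buffers (pH 7.0-9.7) at 37° C for 1-18 h, then assayed with MUGal in acidic citrate/McIlvaine buffer, with fluorescence read after quenching.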

The nature of data set [3]: HTP-analysis of supernatants pretreated with acid (MUGal hydrolysis). Particulars: activity of the variant/activity of Rd4BB (SEQ ID NO: 15); challenge at pH 3.7. An outline of the steps: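 Yeast INVSc1 supernatant, GLA variants; acid challenge: McIlvaine pH 3.3-4.3, 37° C., 1-3 h. Assay: MUGal in McIlvaine pH 4.8 plus citrate pH 4.3, 37° C., 30-180 min, Na2CO3 stop, Ex 355/Em 448 nm.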

B1: 371 (protein)
chain: LDNGLARTPTMGWLHWERFMCNLDCQEEPDSCISEKLFMEMAEWMVSEGWKDAGYEYLCIDDCWMAPQRDSEGRLQADPQRFPHGIRQLANYVHSKGLKLGIYADVGNKTCAGFPGSFGYYDIDAQTFADWGVDLLKFDGCYCDSLENLADGYKHMSLALNRTGRSIVYSCEWPLYMWPFQKPNYTEIRQYCNHWRNFADIDDSWKSIKSILDWTSRNQERIVDVAGPGGWNDPDMLVIGNFGLSWDQQVTQMALWAIMAAPLFMSNDLRHISPQAKALLQDKDVIAINQDPLGKQGYQLRKGDNFEVWERPLSGDAWAVAIINRQEIGGPRSYTIPVASLGKGVACNPACFITQLLPVKRQLGFYNWTSRLKSHINPTGTVLLQLENTMQMSLKDLL
modifications: Synthetic Polypeptide sequence of Variant No. 371 of mature Human GLA
Take B1: the “Relative Activity of GLA Variants After No Challenge (NC)” value in data set [1] is listed as “+ (0.5 to 1.5 relative activity over Rd4BB (SEQ ID NO: 15))”. Further, the “Relative Activity of GLA Variants After Challenge at pH 9.65” value (shortened to “Relative Activity … at pH 9.65”) in data set [2] was “+ (0.5 to 1.5 relative activity over Rd4BB (SEQ ID NO: 15))”. The “Relative Activity of GLA Variants After Challenge at pH 3.7” value (“Relative Activity … at pH 3.7” for short) in data set [3] is on record as “− (<0.5 relative activity over Rd4BB (SEQ ID NO: 15))”.

B2: 498 (protein)
chain: LDNGLARTPTMGWLHWERFMCNLDCQEEPDSCISEKLFMEMAERMVSEGWKDAGYEYLCIDDCWMAPQRDSEGRLQADPQRFPHGIRQLANYVHSKGLKLGIYADVGNKTCAGFPGSFGYYDIDAQTFADWGVDLLKFDGCYCDSLENLADGYKHMSLALNRTGRSIVYSCEWPLYMWPFQKPNYTEIRQYCNHWRNFADIDDSWKSIKSILDWTSFNQERIVDVAGPGGWNDPDMLVIGNFGLSWNQQVTQMALWAIMAAPLFMSNDLRHISPQAKALLQDKDVIAINQDPLGKQGYQLRQGDNFEVWERPLSGLAWAVAMINRQEIGGPRSYTIAVASLGKGVACNPACFITQLLPVKRKLGFYEWTSRLRSHINPTGTVLLQLENTMQISLKDLL
modifications: Synthetic Polypeptide sequence of Variant No. 498 of mature Human GLA
Consider B2, for which, in data set [1], the “Relative Activity of GLA Variants After No Challenge (NC)” value is on record as “+ (0.5 to 1.5 relative activity over Rd4BB (SEQ ID NO: 15))”. Moreover, in data set [2], the “Relative Activity … at pH 9.65” value is “+ (0.5 to 1.5 relative activity over Rd4BB (SEQ ID NO: 15))”. The “Relative Activity … at pH 3.7” value in data set [3] was “+ (0.5 to 1.5 relative activity over Rd4BB (SEQ ID NO: 15))”.

B3: 502 (protein)
chain: LDNGLARTPTMGWLHWERFMCNLDCQEEPDSCISEKLFMEMAERMVSEGWKDAGYEYLCIDDCWMAPQRDSEGRLQADPQRFPHGIRQLANYVHSKGLKLGIYADVGNKTCAGFPGSFGYYDIDAQTFADWGVDLLKFDGCYCDSLENLADGYKHMSLALNRTGRSIVYSCEWPLYMWPFQKPNYTEIRQYCNHWRNFADIDDSWKSIKSILDWTSFNQERIVDVAGPGGWNDPDMLVIGNFGLSWNQQVTQMALWAIMAAPLFMSNDLRHISPQAKALLQDKDVIAINQDPLGKQGYQLRQGDNFEVWERPLSGLAWAVAMINRQEIGGPRSYTIAVASLGKGVACNPACFITQLLPVKRKLGFYEWTSRLRSHINPTGTVLLQSENTMQMSLKDLL
modifications: Synthetic Polypeptide sequence of Variant No. 502 of mature Human GLA
With B3, the “Relative Activity of GLA Variants After No Challenge (NC)” value in data set [1] is “− (<0.5 relative activity over Rd4BB (SEQ ID NO: 15))”. In addition, the “Relative Activity … at pH 9.65” value in data set [2] was “− (<0.5 relative activity over Rd4BB (SEQ ID NO: 15))”. Besides, the “Relative Activity … at pH 3.7” value in data set [3] was “+ (0.5 to 1.5 relative activity over Rd4BB (SEQ ID NO: 15))”.

B4: 500 (protein)
chain: LDNGLARTPTMGWLHWERFMCNLDCQEEPDSCISEKLFMEMAERMVSEGWKDAGYEYLCIDDCWMAPQRDSEGRLQADPQRFPHGIRQLANYVHSKGLKLGIYADVGNKTCAGFPGSFGYYDIDAQTFADWGVDLLKFDGCYCDSLENLADGYKHMSLALNRTGRSIVYSCEWPLYMWPFQKPNYTEIRQYCNHWRNFADIDDSWKSIKSILDWTSFNQERIVDVAGPGGWNDPDMLVIGNFGLSWNQQVTQMALWAIMAAPLFMSNDLRHISPQAKALLQDKDVIAINQDPLGKQGYQLRQGDNFEVWERPLSGLAWAVAMINRQEIGGPRSYTIAVASLGKGVACNPACFITQLLPVKRKLGFYEWTSRLRSHINPTGTVLLQLENTAQMSLKDLL
modifications: Synthetic Polypeptide sequence of Variant No. 500 of mature Human GLA
As for B4, the “Relative Activity of GLA Variants After No Challenge (NC)” value in data set [1] is listed as “+ (0.5 to 1.5 relative activity over Rd4BB (SEQ ID NO: 15))”. Also, in data set [2], the “Relative Activity … at pH 9.65” value is “+ (0.5 to 1.5 relative activity over Rd4BB (SEQ ID NO: 15))”. For the same molecule, the “Relative Activity … at pH 3.7” value in data set [3] is given as “+ (0.5 to 1.5 relative activity over Rd4BB (SEQ ID NO: 15))”.

B5: 499 (protein)
chain: LDNGLARTPTMGWLHWERFMCNLDCQEEPDSCISEKLFMEMAERMVSEGWKDAGYEYLCIDDCWMAPQRDSEGRLQADPQRFPHGIRQLANYVHSKGLKLGIYADVGNKTCAGFPGSFGYYDIDAQTFADWGVDLLKFDGCYCDSLENLADGYKHMSLALNRTGRSIVYSCEWPLYMWPFQKPNYTEIRQYCNHWRNFADIDDSWKSIKSILDWTSFNQERIVDVAGPGGWNDPDMLVIGNFGLSWNQQVTQMALWAIMAAPLFMSNDLRHISPQAKALLQDKDVIAINQDPLGKQGYQLRQGDNFEVWERPLSGLAWAVAMINRQEIGGPRSYTIAVASLGKGVACNPACFITQLLPVKRKLGFYEWTSRLRSHINPTGTVLLQLENLMQMSLKDLL
modifications: Synthetic Polypeptide sequence of Variant No. 499 of mature Human GLA
As to B5, in data set [1], the “Relative Activity of GLA Variants After No Challenge (NC)” value is “+ (0.5 to 1.5 relative activity over Rd4BB (SEQ ID NO: 15))”. Besides, the “Relative Activity … at pH 9.65” value in data set [2] is “+ (0.5 to 1.5 relative activity over Rd4BB (SEQ ID NO: 15))”. Further, the “Relative Activity … at pH 3.7” value in data set [3] is reported as “+ (0.5 to 1.5 relative activity over Rd4BB (SEQ ID NO: 15))”.

B6: 504 (protein)
chain: LDNGLARTPTMGWLHWERFMCNLDCQEEPDSCISEKLFMEMAERMVSEGWKDAGYEYLCIDDCWMAPQRDSEGRLQADPQRFPHGIRQLANYVHSKGLKLGIYADVGNKTCAGFPGSFGYYDIDAQTFADWGVDLLKFDGCYCDSLENLADGYKHMSLALNRTGRSIVYSCEWPLYMWPFQKPNYTEIRQYCNHWRNFADIDDSWKSIKSILDWTSFNQERIVDVAGPGGWNDPDMLVIGNFGLSWNQQVTQMALWAIMAAPLFMSNDLRHISPQAKALLQDKDVIAINQDPLGKQGYQLRQGDNFEVWERPLSGLAWAVAMINRQEIGGPRSYTIAVASLGKGVACNPACFITQLLPVKRKLGFYEWTSRLRSHINPTGTVLLQLENTSQMSLKDLL
modifications: Synthetic Polypeptide sequence of Variant No. 504 of mature Human GLA
For B6, in data set [1], the “Relative Activity of GLA Variants After No Challenge (NC)” value is listed as “+ (0.5 to 1.5 relative activity over Rd4BB (SEQ ID NO: 15))”. Also, in data set [2], the “Relative Activity … at pH 9.65” value is recorded as “+ (0.5 to 1.5 relative activity over Rd4BB (SEQ ID NO: 15))”. In data set [3], the “Relative Activity … at pH 3.7” value is listed as “+ (0.5 to 1.5 relative activity over Rd4BB (SEQ ID NO: 15))”.

B7: 501 (protein)
chain: LDNGLARTPTMGWLHWERFMCNLDCQEEPDSCISEKLFMEMAERMVSEGWKDAGYEYLCIDDCWMAPQRDSEGRLQADPQRFPHGIRQLANYVHSKGLKLGIYADVGNKTCAGFPGSFGYYDIDAQTFADWGVDLLKFDGCYCDSLENLADGYKHMSLALNRTGRSIVYSCEWPLYMWPFQKPNYTEIRQYCNHWRNFADIDDSWKSIKSILDWTSFNQERIVDVAGPGGWNDPDMLVIGNFGLSWNQQVTQMALWAIMAAPLFMSNDLRHISPQAKALLQDKDVIAINQDPLGKQGYQLRQGDNFEVWERPLSGLAWAVAMINRQEIGGPRSYTIAVASLGKGVACNPACFITQLLPVKRKLGFYEWTSRLRSHINPTGTVLLQLENTMQGSLKDLL
modifications: Synthetic Polypeptide sequence of Variant No. 501 of mature Human GLA
Regarding B7, the “Relative Activity of GLA Variants After No Challenge (NC)” value in data set [1] was “+ (0.5 to 1.5 relative activity over Rd4BB (SEQ ID NO: 15))”. Moreover, the “Relative Activity … at pH 9.65” value in data set [2] was “+ (0.5 to 1.5 relative activity over Rd4BB (SEQ ID NO: 15))”. Besides, the “Relative Activity … at pH 3.7” value in data set [3] is reported as “++ (>1.5 to 2.5 relative activity over Rd4BB (SEQ ID NO: 15))”.

B8: 503 (protein)
chain: LDNGLARTPTMGWLHWERFMCNLDCQEEPDSCISEKLFMEMAERMVSEGWKDAGYEYLCIDDCWMAPQRDSEGRLQADPQRFPHGIRQLANYVHSKGLKLGIYADVGNKTCAGFPGSFGYYDIDAQTFADWGVDLLKFDGCYCDSLENLADGYKHMSLALNRTGRSIVYSCEWPLYMWPFQKPNYTEIRQYCNHWRNFADIDDSWKSIKSILDWTSFNQERIVDVAGPGGWNDPDMLVIGNFGLSWNQQVTQMALWAIMAAPLFMSNDLRHISPQAKALLQDKDVIAINQDPLGKQGYQLRQGDNFEVWERPLSGLAWAVAMINRQEIGGPRSYTIAVASLGKGVACNPACFITQLLPVKRKLGFYEWTSRLRSHINPTGTVLLCLENTMQMSLKDLL
modifications: Synthetic Polypeptide sequence of Variant No. 503 of mature Human GLA
As for B8, the “Relative Activity of GLA Variants After No Challenge (NC)” value in data set [1] is listed as “+ (0.5 to 1.5 relative activity over Rd4BB (SEQ ID NO: 15))”. For the same molecule, in data set [2], the “Relative Activity … at pH 9.65” value is “+ (0.5 to 1.5 relative activity over Rd4BB (SEQ ID NO: 15))”. Moreover, the “Relative Activity … at pH 3.7” value in data set [3] is listed as “+ (0.5 to 1.5 relative activity over Rd4BB (SEQ ID NO: 15))”.

(Values after patent publication US11278600B2, “Human alpha-galactosidase variants” (Codexis, Inc., priority 2014, dated 2022).)
